Reference: the Immune Epitope Database (IEDB)

Assays:
HLA-A*68:01 = assay: IEDB peptide-MHC binding, purified MHC/competitive/radioactivity; filed as Kd, often an IC50 or EC50 that approximates it; ≥ and ≤ were set here for values at or beyond the usual limits of such assays; conditions: source organism: Vaccinia virus WR
HLA-A*33:01 = assay: as above; conditions: source organism: Vaccinia virus WR
HLA-A*31:01 [1] = assay: as above; conditions: source organism: Vaccinia virus WR
HLA-A*01:01 [2] = assay: IEDB peptide-MHC binding, purified MHC/competitive/fluorescence; ≥ and ≤ were set here for values at or beyond the usual limits of such assays
HLA-B*15:01 [3] = assay: as above; conditions: source organism: Vaccinia virus Copenhagen
HLA-A*02:01 [4] = assay: as above; conditions: source organism: Vaccinia virus Copenhagen
HLA-A*03:01 [5] = assay: as above; conditions: source organism: Vaccinia virus Copenhagen
HLA-A*11:01 [6] = assay: as above; conditions: source organism: Vaccinia virus Copenhagen
HLA-C*14:02 = assay: IEDB peptide-MHC binding, purified MHC/direct/fluorescence; filed as Kd, often an IC50 or EC50 that approximates it; ≥ and ≤ were set here for values at or beyond the usual limits of such assays; conditions: source organism: Vibrio antiquarius
HLA-B*15:01 [7] = assay: as above
HLA-B*07:02 [8] = assay: as above
HLA-B*51:01 = assay: as above; conditions: source organism: Vibrio parahaemolyticus
HLA-A*01:01 [9] = assay: as above
HLA-B*27:05 [10] = assay: as above; conditions: source organism: Camelpox virus CMS
HLA-B*58:01 = assay: as above
HLA-B*08:01 = assay: as above; conditions: source organism: Variola virus
HLA-A*69:01 = assay: as above
HLA-B*40:01 = assay: as above
HLA-C*12:03 = assay: as above; conditions: source organism: Vaccinia virus Tian Tan
HLA-A*02:01 [11] = assay: as above; conditions: source organism: Camelpox virus CMS
HLA-A*31:01 [12] = assay: as above; conditions: source organism: Camelpox virus CMS
HLA-A*03:01 [13] = assay: as above
HLA-A*11:01 [14] = assay: as above
HLA-B*48:01 = assay: as above
HLA-B*08:03 = assay: as above; conditions: source organism: Variola virus
HLA-A*30:01 = assay: IEDB peptide-MHC binding, purified MHC/competitive/radioactivity; filed as Kd, often an IC50 or EC50 that approximates it; ≥ and ≤ were set here for values at or beyond the usual limits of such assays; conditions: source organism: Vaccinia virus WR
HLA-B*15:17 = assay: IEDB peptide-MHC binding, purified MHC/competitive/fluorescence; filed as Kd, often an IC50 or EC50 that approximates it; ≥ and ≤ were set here for values at or beyond the usual limits of such assays
HLA-B*15:01 [15] = assay: as above; conditions: source organism: Vaccinia virus Tian Tan
HLA-A*68:02 = assay: as above
HLA-A*02:06 = assay: as above; conditions: source organism: Vaccinia virus Tian Tan
HLA-A*26:03 = assay: as above
HLA-B*18:01 [16] = assay: as above; conditions: source organism: Vaccinia virus Tian Tan
HLA-A*26:01 [17] = assay: as above; conditions: source organism: Vaccinia virus Tian Tan
HLA-B*35:01 = assay: as above; conditions: source organism: Vaccinia virus Tian Tan
HLA-C*15:02 = assay: IEDB peptide-MHC binding, purified MHC/direct/fluorescence; filed as Kd, often an IC50 or EC50 that approximates it; ≥ and ≤ were set here for values at or beyond the usual limits of such assays
HLA-B*46:01 [18] = assay: IEDB peptide-MHC binding, purified MHC/competitive/fluorescence; filed as Kd, often an IC50 or EC50 that approximates it; ≥ and ≤ were set here for values at or beyond the usual limits of such assays; conditions: source organism: Bacillus anthracis str. A0488
HLA-A*24:02 = assay: IEDB peptide-MHC binding, purified MHC/competitive/fluorescence; ≥ and ≤ were set here for values at or beyond the usual limits of such assays; conditions: source organism: Vaccinia virus Copenhagen
HLA-B*46:01 [19] = assay: IEDB peptide-MHC binding, purified MHC/direct/fluorescence; filed as Kd, often an IC50 or EC50 that approximates it; ≥ and ≤ were set here for values at or beyond the usual limits of such assays; conditions: source organism: Camelpox virus M-96
HLA-A*26:02 = assay: as above; conditions: source organism: Variola virus
HLA-B*18:01 [20] = assay: as above; conditions: source organism: Camelpox virus M-96
HLA-A*26:01 [21] = assay: as above; conditions: source organism: Variola virus
HLA-B*57:01 = assay: as above; conditions: source organism: Camelpox virus M-96
HLA-B*27:05 [22] = assay: IEDB peptide-MHC binding, purified MHC/competitive/fluorescence; filed as Kd, often an IC50 or EC50 that approximates it; ≥ and ≤ were set here for values at or beyond the usual limits of such assays; conditions: source organism: Vaccinia virus Copenhagen
HLA-A*02:01 [23] = assay: as above; conditions: source organism: Vaccinia virus Copenhagen
HLA-A*31:01 [24] = assay: as above; conditions: source organism: Vaccinia virus Copenhagen
HLA-B*07:02 [25] = assay: as above; conditions: source organism: Influenza A virus (A/chicken/Scotland/1959(H5N1))
[26] = source organism: Vaccinia virus Copenhagen
[27] = source organism: Camelpox virus CMS
[28] = source organism: Vaccinia virus Tian Tan
[29] = source organism: Camelpox virus M-96

In the case of KLNGAMVEY, the Kd (HLA-A*68:01) is reported as 5.97 nM, the Kd (HLA-A*33:01) is reported as 1960 nM and the Kd (HLA-A*31:01 [1]) is reported as 1180 nM. For the same sequence, the IC50 (HLA-A*01:01 [2]; [26]) was no less than 192000 nM, the IC50 (HLA-B*15:01 [3]) was 12200 nM and the IC50 (HLA-A*02:01 [4]) was no less than 95400 nM. It also gave an IC50 (HLA-A*03:01 [5]) of 11600 nM and an IC50 (HLA-A*11:01 [6]) of 7970 nM.
Sequence KVAQAAAAM has a Kd (HLA-C*14:02) of 72 nM, a Kd (HLA-B*15:01 [7]; source organism: Vibrio parahaemolyticus AQ3810) of 29 nM and a Kd (HLA-B*07:02 [8]; source organism: Vibrio parahaemolyticus) of 34 nM. The Kd (HLA-B*51:01) was no less than 20000 nM.
Work on KVFFGPIYY yielded a Kd (HLA-A*01:01 [9]; [27]) of no less than 20000 nM, a Kd (HLA-B*27:05 [10]) of no less than 20000 nM and a Kd (HLA-B*58:01; [27]) of 21 nM. The Kd (HLA-B*08:01) was no less than 20000 nM, the Kd (HLA-A*69:01; [27]) was no less than 20000 nM and the Kd (HLA-B*40:01; [27]) was no less than 20000 nM. It also gave a Kd (HLA-C*12:03) of 45 nM, a Kd (HLA-B*07:02 [8]; [27]) of no less than 20000 nM and a Kd (HLA-A*02:01 [11]) of no less than 20000 nM. For the same sequence, the Kd (HLA-A*31:01 [12]) was 1290 nM, the Kd (HLA-A*03:01 [13]; [27]) was 29 nM and the Kd (HLA-A*11:01 [14]; [27]) was 22 nM. For the same sequence, the Kd (HLA-B*48:01; [27]) was no less than 20000 nM, the Kd (HLA-B*08:03) was no less than 20000 nM and the Kd (HLA-A*30:01) was 154 nM. It also gave a Kd (HLA-B*15:17; [28]) of 21.6 nM, a Kd (HLA-B*15:01 [15]) of 423 nM and a Kd (HLA-A*68:02; [28]) of no less than 20000 nM. The Kd (HLA-A*02:06) was 1800 nM, the Kd (HLA-A*26:03; [28]) was no less than 20000 nM and the Kd (HLA-B*18:01 [16]) was no less than 20000 nM. For the same sequence, the Kd (HLA-A*26:01 [17]) was 3000 nM and the Kd (HLA-B*35:01) was 333 nM.
LMAFSTGPF gave a Kd (HLA-C*15:02; source organism: Bacillus anthracis str. A0488) of no less than 20000 nM and a Kd (HLA-B*46:01 [18]) of 2760 nM.
LQIPFAMQM showed a Kd (HLA-C*15:02; source organism: SARS-CoV1) of 110 nM, a Kd (HLA-B*58:01; source organism: SARS-CoV1) of 986 nM and a Kd (HLA-B*15:01 [7]; source organism: SARS-CoV1) of 180 nM. For the same sequence, the Kd (HLA-B*40:01; source organism: SARS-CoV1) was 4040 nM.
In the case of LYQLLEAVY, the IC50 (HLA-A*01:01 [2]; [26]) is reported as no less than 199000 nM, the IC50 (HLA-B*15:01 [3]) is reported as no less than 71900 nM and the IC50 (HLA-A*24:02) is reported as 68.7 nM. The IC50 (HLA-A*02:01 [4]) was no less than 72800 nM.
SLYKYLLLR was tested, and the Kd (HLA-A*01:01 [9]; [29]) was no less than 20000 nM, the Kd (HLA-B*58:01; [29]) was no less than 20000 nM and the Kd (HLA-B*46:01 [19]) was no less than 20000 nM. For the same sequence, the Kd (HLA-B*08:01) was no less than 20000 nM, the Kd (HLA-A*69:01; [29]) was no less than 20000 nM and the Kd (HLA-B*15:01 [7]; [29]) was no less than 20000 nM. The Kd (HLA-B*40:01; [29]) was no less than 20000 nM, the Kd (HLA-B*07:02 [8]; [29]) was no less than 20000 nM and the Kd (HLA-A*26:02) was no less than 20000 nM. For the same sequence, the Kd (HLA-B*18:01 [20]) was no less than 20000 nM, the Kd (HLA-A*26:01 [21]) was no less than 20000 nM and the Kd (HLA-A*03:01 [13]; [29]) was 31 nM. It also gave a Kd (HLA-A*11:01 [14]; [29]) of 47 nM, a Kd (HLA-B*57:01) of no less than 20000 nM and a Kd (HLA-B*48:01; [29]) of no less than 20000 nM. For the same sequence, the Kd (HLA-B*08:03) was no less than 20000 nM, the Kd (HLA-B*15:17; [26]) was no less than 20000 nM and the Kd (HLA-B*27:05 [22]) was 2460 nM. It also gave a Kd (HLA-A*68:02; [26]) of 3900 nM, a Kd (HLA-A*26:03; [26]) of no less than 20000 nM and a Kd (HLA-A*02:01 [23]) of 555 nM. The Kd (HLA-A*31:01 [24]) was 1.17 nM.
SPYRTLMSCPI showed a Kd (HLA-B*07:02 [25]) of 3.6 nM.
For VVDPDDGSY, the IC50 (HLA-A*01:01 [2]; source organism: Zaire ebolavirus) was 44100 nM.
